Assay results: patent US20220064329A1

Biological target: recombinant human activated Factor VII (FVIIa) (human) (UniProt P08709)
Assay: cell-based or functional assay

Chain of recombinant human activated Factor VII (FVIIa) (human) (P08709 61-212, chain 1 of 2): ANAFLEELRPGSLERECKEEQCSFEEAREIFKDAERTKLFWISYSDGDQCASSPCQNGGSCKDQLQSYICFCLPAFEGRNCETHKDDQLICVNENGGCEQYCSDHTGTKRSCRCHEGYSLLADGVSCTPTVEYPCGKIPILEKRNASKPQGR
Chain of recombinant human activated Factor VII (FVIIa) (human) (P08709 213-466, chain 2 of 2): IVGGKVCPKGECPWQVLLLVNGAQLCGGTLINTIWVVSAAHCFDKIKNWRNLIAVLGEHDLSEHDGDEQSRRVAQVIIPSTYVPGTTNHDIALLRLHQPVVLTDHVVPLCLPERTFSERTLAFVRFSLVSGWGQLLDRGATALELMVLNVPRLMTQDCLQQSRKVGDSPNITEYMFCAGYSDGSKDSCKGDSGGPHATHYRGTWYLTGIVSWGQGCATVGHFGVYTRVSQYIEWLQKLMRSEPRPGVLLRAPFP

apparent second order rate constant of inhibition of FVIIa by alpha-2-macroglobulin, no antibody [M⁻¹ s⁻¹]	apparent second order rate constant (kinh) of inhibition of free FVIIa by antithrombin [M⁻¹ s⁻¹]	Substance
475	–	human plasma-derived alpha-2-macroglobulin (from UniProt P01023 24-1474)
–	124	human plasma-derived antithrombin (AT) (from UniProt P01008 33-464)
